No end group written: not given here. *: point of attachment. Biotin = O=C1N[C@H]2[C@H](CS[C@H]2CCCCC(=O)*)N1
Legend:
[1] = molecular target: T1, negative control polypeptide JS4; test: ELISA, biotin-antigen on streptavidin plate
T1 construct: negative control for JS1; also called JS4.His
Experimental: (§1) Anti-MS4A4A antibodies of the present disclosure were tested for their ability to bind to the different recombinant MS4A4A soluble polypeptides, as described in Example 2, as follows. Nucleic acid encoding the VH and VL domains of humanized anti-MS4A4A antibodies of the present disclosure were cloned into pcDNA3.4 vector which contains either the human IgG1 heavy chain constant domain or human kappa constant domain. The humanized anti-MS4A4A antibodies were expressed in Expi293 cells and were purified by Mab select antibody purification resin (GE Healthcare Life Science, cat#17519902) following the manufacture's protocol. ELISA was performed to measure binding of anti-MS4A4A antibodies of the present disclosure the recombinant MS4A4A soluble polypeptides. 1 μg/ml biotinylated antigens were preincubated on the streptavidin-coated ELISA plates (Thermo Scientific, cat#PI15120) for 1 hour. Plates were washed 3 times, followed by the addition of antibodies (1 μg/ml, 0.33 μg/ml, and 0.11 μg/ml antibodies. Plates were incubated at room temperature with shaking for 1 hr, washed 3 times, then 1/2500 dilution of HRP conjugates goat anti human kappa antibodies added (SigmaAldrich cat#. A7164-1ML).

[2] = molecular target: T2, negative control polypeptide JS10; test: ELISA, biotin-antigen on streptavidin plate
T2 construct: negative control for JS5 and JS6; also called JS10.His
Experimental: as §1

[3] = molecular target: T3, recombinant MS4A4A soluble polypeptide JS1; test: ELISA, biotin-antigen on streptavidin plate
T3 construct: also called JS1.His; loop grafted antigen
Experimental: as §1

[4] = molecular target: T4, recombinant MS4A4A soluble polypeptide JS5; test: ELISA, biotin-antigen on streptavidin plate
T4 construct: also called JS5.His
Experimental: as §1

[5] = molecular target: T5, recombinant MS4A4A soluble polypeptide JS6; test: ELISA, biotin-antigen on streptavidin plate
T5 construct: also called JS6.His
Experimental: as §1

peptide 4A.2 = molecular target: T6, peptide 4A.2 (human); test: SPR array, biotin-peptide on streptavidin chip
T6 peptide: Biotin-MMCMASNTYGSNPIS
Description: (§2) A panel of overlapping peptides derived from the extracellular loops (ECLs) of human MS4A4A (SEQ ID NO:1) were synthesized by JPT peptides (Berlin, Germany). These peptides were 15 amino acids in length, each offset by 2 amino acids. The peptides were biotinylated on the N-terminus. Peptides 4A.1 through 4A.4 were derived from human MS4A4A ECL1 and surrounding regions. Peptides 4A.5 through 4A.12 were derived from human MS4A4A ECL2 and surrounding regions.
(§3) The peptide library was printed onto a streptavidin-coated chip (Xantec SAD50M, Dusseldorf, Germany) using the Continuous Flow Microspotter (CFM). […] The peptide library was immobilized onto the chip at 250 nM per peptide diluted into HBS-EP+ buffer (Teknova Cat #H8022) with 1 mg/ml BSA and 1 μg/ml mouse IgG-Biotin. Following immobilization, the chip surface was deactivated with 1M ethanolamine at pH 8.5 for 10 minutes. Hybridoma supernatants and purified anti-MS4A4A antibodies were diluted in HBS-EP+ buffer with 1 mg/ml BSA and injected onto the chip. Duplicate measurements for each anti-MS4A4A antibody were taken to ensure reproducibility. Binding characteristics were determined for each peptide-antibody combination, allowing the mapping of the linear peptide region each antibody interacts with.

peptide 4A.12 = molecular target: T7, peptide 4A.12 (human); test: SPR array, biotin-peptide on streptavidin chip
T7 peptide: Biotin-GNSNNCHGTMSILMG
Description: as §2, §3

peptide 4A.5 = molecular target: T8, peptide 4A.5 (human); test: SPR array, biotin-peptide on streptavidin chip
T8 peptide: Biotin-LAFYSFHHPYCNYYG
Description: as §2, §3

peptide 4A.3 = molecular target: T9, peptide 4A.3 (human); test: SPR array, biotin-peptide on streptavidin chip
T9 peptide: Biotin-CMASNTYGSNPISVY
Description: as §2, §3

peptide 4A.6 = molecular target: T10, peptide 4A.6 (human); test: SPR array, biotin-peptide on streptavidin chip
T10 peptide: Biotin-FYSFHHPYCNYYGNS
Description: as §2, §3

peptide 4A.10 = molecular target: T11, peptide 4A.10 (human, cysteine pairing not given here); test: SPR array, biotin-peptide on streptavidin chip
T11 peptide: Biotin-CNYYGNSNNCHGTMS
Description: as §2, §3

peptide 4A.7 = molecular target: T12, peptide 4A.7 (human); test: SPR array, biotin-peptide on streptavidin chip
T12 peptide: Biotin-SFHHPYCNYYGNSNN
Description: as §2, §3

peptide 4A.11 = molecular target: T13, peptide 4A.11 (human); test: SPR array, biotin-peptide on streptavidin chip
T13 peptide: Biotin-YYGNSNNCHGTMSIL
Description: as §2, §3

peptide 4A.1 = molecular target: T14, peptide 4A.1 (human); test: SPR array, biotin-peptide on streptavidin chip
T14 peptide: Biotin-ITMMCMASNTYGSNP
Description: as §2, §3

peptide 4A.4 = molecular target: T15, peptide 4A.4 (human); test: SPR array, biotin-peptide on streptavidin chip
T15 peptide: Biotin-ASNTYGSNPISVYIG
Description: as §2, §3

peptide 4A.9 = molecular target: T16, peptide 4A.9 (human, cysteine pairing not given here); test: SPR array, biotin-peptide on streptavidin chip
T16 peptide: Biotin-PYCNYYGNSNNCHGT
Description: as §2, §3

peptide 4A.8 = molecular target: T17, peptide 4A.8 (human, cysteine pairing not given here); test: SPR array, biotin-peptide on streptavidin chip
T17 peptide: Biotin-HHPYCNYYGNSNNCH
Description: as §2, §3

[6] = molecular target: T3, recombinant MS4A4A soluble polypeptide …; test: ELISA, 1 ug/ml antibody
Outline: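 Biotinylated antigen 1 μg/ml captured on streptavidin, 1 h; wash x3. Humanized IgG1/kappa Ab (Expi293) 1, 0.33, 0.11 μg/ml, 1 hr RT shaking; wash x3. HRP anti-human kappa 1/2500.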

[7] = molecular target: T18, huMS4A4A-ECL2 free-peptide (human); test: peptide ELISA, murine antibody
T18 construct: synthetic, free or BSA-conjugated, coated on the plate; also called human MS4A4A ECL2 peptide; huMS4A4A-ELC2 free-peptide
T18 peptide: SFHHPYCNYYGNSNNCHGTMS
Experimental: Coated plates were then blocked with ELISA diluent (PBS+0.5% BSA+0.05% Tween20) for 1-hour, washed 3×300 μL in PBST (PBS+0.05% Tween20, Thermo Cat#28352), and then the antibodies were added to the plate ([…]). After 30 mins incubation (room temperature, with shaking), the plates were washed 3×300 μL in PBST. […] After a final set of washes (3×300 μL in PBST), 50 μL of TMB substrate (BioFx Cat#TMBW-1000-01) was added and the reaction was then quenched after 5-10 mins with 50 μL of stop solution (BioFx Cat#BSTP-1000-01). The quenched reaction wells were detected for absorbance at […] with a BioTek Synergy Microplate Reader using GENS 2.04 software.

[8] = molecular target: T4, recombinant MS4A4A soluble polypeptide …; test: ELISA, 0.4 ug/ml antibody

B1: anti-MS4A4A antibody 4A-21 (antibody, V domains shown)
VH: QIQLVQSGPELKKPGETVKISCKASGYIFTSYGLSWVKQTPGKGLKWMGWINTYSGVPTYANDFKGRFAFSLETSASTTYLRINNLKNDDTATYFCARSLVDYWGQGTPLTVSS
VL: not shown
notes: murine parental; tested as mouse IgG1 or as human IgG1 Fc chimera (hFc), told under assay; also called 4A-21.hFc
For B1, the “ELISA OD” value [1] was 0.138, the “ELISA OD” value [2] was 0.112 and the “ELISA OD” value [3] was 2.02. The “ELISA OD” value [4] was 1.73, the “ELISA OD” value [5] was 1.67 and the SPR binding response (peptide 4A.2) was -11.5. It also gave an SPR binding response (peptide 4A.12) of -5.2, an SPR binding response (peptide 4A.5) of 383 and an SPR binding response (peptide 4A.3) of -10.6. The SPR binding response (peptide 4A.6) was 486, the SPR binding response (peptide 4A.10) was -4.5 and the SPR binding response (peptide 4A.7) was 446. For the same binder, the SPR binding response (peptide 4A.11) was -6.5, the SPR binding response (peptide 4A.1) was -11.2 and the SPR binding response (peptide 4A.4) was -7.9. The SPR binding response (peptide 4A.9) was 225, the SPR binding response (peptide 4A.8) was 309 and the OD450 [6] was 1.96. For the same binder, the binding result [7] was “binds” and the OD450 [8] was 0.925.
